Measured values taken from the DeepSol protein solubility set.

Assay: soluble on expression in E. coli; label from the status in PepcDB or PDB records
With “MSAESERKTETIPEWKQEEVDAIVEMIESYESVGVVNIAGIPSRQLQDMRRDLHGTAELRVSRNTLLERALDDVDDGLEDLNGYITGQVGLIGTDDNPFSLFQELEASKTPAPIGAGEVAPNDIVIPEGDTGVDPGPFVGELQSVGADARIQEGSIQVLSDSTVLDTGEEVSQELSNVLNELGIEPKEVGLDLRAVFADGVLFEPEELELDIDEYRSDIQAAAGRAFNLSVNADYPTATTAPTMLQSDRGNAKSLALQAAIEDPEVVPDLVSKADAQVRALASQIDDEEALPEELQGVEADVATEEPTDDQDDDTASEDDADADDAAEEADDDDDDDEDAGDALGAMF” the “soluble on expression in E. coli” value was “soluble”.
In the case of “MSAFKKSLLVAGVAMILSNNVFADEGHGIVKFKGEVISAPCSIKPGDEDLTVNLGEVADTVLKSDQKSLAEPFTIHLQDCMLSQGGTTYSKAKVTFTTANTMTGQSDLLKNTKETEIGGATGVGVRILDSQSGEVTLGTPVVITFNNTNSYQELNFKARMESPSKDATPGNVYAQADYKIAYE”, the “soluble on expression in E. coli” value is reported as “soluble”.
With “MSAKAISEQTGKELLYKFICTTSAIQNRFKYARVTPDTDWARLLQDHPWLLSQNLVVKPDQLIKRRGKLGLVGVNLTLDGVKSWLKPRLGQEATVGKATGFLKNFLIEPFVPHSQAEEFYVCIYATREGDYVLFHHEGGVDVGDVDAKAQKLLVGVDEKLNPEDIKKHLLVHAPEDKKEILASFISGLFNFYEDLYFTYLEINPLVVTKDGVYVLDLAAKVDATADYICKVKWGDIEFPPPFGREAYPEEAYIADLDAKSGASLKLTLLNPKGRIWTMVAGGGASVVYSDTICDLGGVNELANYGEYSGAPSEQQTYDYAKTILSLMTREKHPDGKILIIGGSIANFTNVAATFKGIVRAIRDYQGPLKEHEVTIFVRRGGPNYQEGLRVMGEVGKTTGIPIHVFGTETHMTAIVGMALGHRPIP” the “soluble on expression in E. coli” value was “soluble”.
With “MSAKKERVDVLLVERGLIETREKAKRAIMAGLVYANEMRLDKPGEKIPQDTEITVKGQVMPYVSRGGYKLEKALETFHLDLQDKVMIDIGSSTGGFTDCALQNGAKLSYALDVGYNQLAWKLRQDERVVVMERTNFRYVTPADLERGLPQFASIDVSFISLKLILPVLKTMLMPNGDVAALIKPQFEAGREQVGKKGIVRDRKVHEAVVEMIVDFAIKEGYDVEGLTFSPITGGDGNIEFLIHLKWHGERENGENHSPVSVEQVVTEAHDVLKQKGKGE” the “soluble on expression in E. coli” value was “not soluble”.
In the case of “MSARMDNDTAALLERIRSDWARLNHGQGPDSDGLTPSAGPMLTLLLLERLHAALGREIERTYAASGLNAAGWDLLLTLYRSAPPEGLRPTELSALAAISGPSTSNRIVRLLEKGLIERREDERDRRSASIRLTPQGRALVTHLLPAHLATTQRVLAPLSAQEQRTLEELAGRMLAGLEQGV”, the “soluble on expression in E. coli” value is reported as “soluble”.
In the case of “MSATMQSETVYDAVIVGGGVAGGTAALLLRQRGCSVALLEKRPLDYYKALCTHFIQPSAVPILRRVGLDHVLEPEASTRTKASFVTSEGVIDTPGGYTDDAATAYAYNLERRVLDPALRARARSEGVDLLDEATVTACRLQADGLWRVEADADTDTDGARHPRVLRARVVIAADGRRSQMAQWLNNAAVQHDNQRAAVFAQFEGIAVPGGNRSLFILAEREMGFVYPLTGGRTLLSAYVEKDRAAQWRHSADAGAPLLDFFARLAPGLDLAGARLLTPVLGYADYPSQFRQPVCGAVPFIGDAALSLDPMSGVGCGFAMEAAALLDEHLGPALQAQGNSAIGPALDAYASRFDTHFAAHARGIVADSLIAKQPAAQAALYRAVIADPALQRDYLALTGRLITPQAFQRAYFSAHVRSQRAATTHAHPPERASELSLEHHHHHH”, the “soluble on expression in E. coli” value is reported as “not soluble”.
For “MSAVKKQRIDLRLTDDDKSMIEEAAAISNQSVSQFMLNSASQRAAEVIEQHRRVILNEESWTRVMDALSNPPSPGEKLKRAAKRLQGM”, the “soluble on expression in E. coli” value was “soluble”.
With “MSCALLIENLTCQYDAQTVLKSLSLQVNPGEIVCLLGASGCGKTTLLKAIAGLLPLASGQLSLNCVTLDDGKRWLPPEQRNIGMIFQDYALFPHLTVAQNVGFGLDAMPAKQKEAKIAEMLALVHLDAFAERYPHQLSGGQQQRVAIARALAYKPDLLLLDEPFSNIDTQVRHELIIEIRKIFKQQGVTAIFVTHSREEAFAFADKMAVMNRGVIEQYGTAAELYYQPSSQFVADFLGGGSYLSAKRISETQYQTALGVVEAIARQPIAVEAECKLLLRPQQVQIRAEEESSVTVTEQQFMGDHCRYLIDAHGTQLIATSSQPLELGQAVSVNIDTQGVLAFA” the “soluble on expression in E. coli” value was “not soluble”.
For “MSCIAAIAAAEGTGSRMAYVSLPRRLVTLLMISTVMVSCSAEGLVPPAEVDGTTRVSAIRSSRQQGYSAPSGAVNQVERAGQGADYPSTMSQPMPEPYASQDPLLQSPQAGQGYSTLDSQHQARMAASGHTNMPAQPMQSQTMQSQTMQAQTMQAQTMPGQQLASNQNAEGEGGVNMDSMLGVEPVRGLAEEQDADIAEGASAQPVVDGIGTDNPVAVSPPRRQQGASQSRLIPPPPVGSSSRRQPVEEVAMLMPNDPMAGGPMQSNRSMPPGVMPSSEVACRSELRRLGVAFRDVARIADGPTCGIDYPIELSGLASGVAIRPAVKLNCQVTLAFAKWVKFELVPSSRFRYLSGVGRITPMGGYSCRKMNSRSSNPWSEHARGNAIDIGTITLKNGKEIDVRSKSFFAFREKALLKAVRSDSCKYFSTVLGPGSDPNHWNHFHFDLRTRKSGYRHCD”, the “soluble on expression in E. coli” value was “not soluble”.
With “MSDARLAELAAAVGLQLDWQDANGRPQRVDPEVQRGLLEALGYPAQSPQQIEQSLAALARLREDSANLGLLVGECGQPLEQALGPAGTPGELVYEDGTRIALRLDAEGRLPAQARSGYAQLSLEQREWAVAMAPPSCPSLASLAPGRSRRWGLAAQVYALRRPGDGGLGDSAALEDLLRSAARHGADALAISPLHALAEANGHAYSPYSPSSRLFFNVLHAAPATILGAAAVEQAIRRAGLAAEMARLESLELIDWTAAADLRMRLLRQLHRDFTERASPLRHDLAEFRREAGEALLHHCRFETLQAHLGAGPDWRRWPEPLRRPGEPAVAAFCADHAEEVDFRAFGQWLTQRCLQHAQRQAREAGMAIGLVADLAVGADGGGSQAWSRQEELLAEVNVGAPPDILNQSGQDWGVSAFNPEGLRRHGYRAFREMLRANLAWPGGLRIDHVMGLQRLWLIPRGQPPHAGAYLRYPQRELLRLLALEASRASALVIGEDLGTVPEGLREELARRQVLGTRVLLFERRGERFVPPAQWPADAMATTSTHDLPSLSGWWRGRDIHWRGRAGHRSAEECAADLELRAEERRALAASLEPPVDPDPAAEVPLDACIGYVGATPAPLVLLPLEDALGSLEQPNLPGPGDAHPNWRRRWPENAAQMLGTPQVDRRLRLLERSRRDAEEA” the “soluble on expression in E. coli” value was “not soluble”.
For “MSDEGLAPGKRLSEIRQQQGLSQRRAAELSGLTHSAISTIEQDKVSPAISTLQKLLKVYGLSLSEFFSEPEKPDEPQVVINQDDLIEMGSQGVSMKLVHNGNPNRTLAMIFETYQPGTTTGERIKHQGEEIGTVLEGEIVLTINGQDYHLVAGQSYAINTGIPHSFSNTSAGICRIISAHTPTTF”, the “soluble on expression in E. coli” value was “not soluble”.
In the case of “MSDEREVAEAATGEDASSPPPKTEAASDPQHPAASEGAAAAAASPPLLRCLVLTGFGGYDKVKLQSRPAAPPAPGPGQLTLRLRACGLNFADLMARQGLYDRLPPLPVTPGMEGAGVVIAVGEGVSDRKAGDRVMVLNRSGMWQEEVTVPSVQTFLIPEAMTFEEAAALLVNYITAYMVLFDFGNLQPGHSVLVHMAAGGVGMAAVQLCRTVENVTVFGTASASKHEALKENGVTHPIDYHTTDYVDEIKKISPKGVDIVMDPLGGSDTAKGYNLLKPMGKVVTYGMANLLTGPKRNLMALARTWWNQFSVTALQLLQANRAVCGFHLGYLDGEVELVSGVVARLLALYNQGHIKPHIDSVWPFEKVADAMKQMQEKKNVGKVLLVPGPEKEN”, the “soluble on expression in E. coli” value is reported as “soluble”.
With “MSDPLLQLISTGLGLWIRSRCDQVGDLDLTLQGSSLGLMRGRLQGAVLSARDVRFEGLPLHHAEISSGPIQLDLTWLRPGRMLALKDPFQVKGTVSMPGQPLGDALLSERWRELGDWIAEQLMGLKPLGQLRIENDELELVASVAAQRDPIRKRFRLRAEAGTVVLSASDSPETRAVLPMDPAITITDATLGAGLLTLQGHAIVTPE” the “soluble on expression in E. coli” value was “not soluble”.
For “MSDSASNTENSIQIEIFPSRILSPETAQKLLVELSQVDGILRVMIQGNRLPEKVGYGPGTGEKVEHPLRKPIQIGGQVIELRVSVGRIRLEVLNAEVKENVRAVCEKMLPFSFEFREGHFLRRKPTVTDYAKLGPEADPRLLGMVDPKAKINQLVFIEKQEKEDDEDKDELEHHHHHH”, the “soluble on expression in E. coli” value was “soluble”.
For “MSDSDDNAYSDYLGNRRAALQKKRQPVRVCESDDSDDDFDTSGPSPMRKKTRETQLFPDDSDDDECVEVEKETYSQKVRHEIDDVEEAYRRSIYKRETVIHAPVEKNNVISGLLKICEGWDEAAKSGAQPEVEDVKDDSDADESSIAAENFPVTVVILDCESHGNDMKSRHDIFLESTFSEIRRIYATKWGCPVSCVVFSHNGKTIDTYTTPQSLGWRPMTLPHPLIEASKEAGEPAEVFTIENSPDSFTIKVLLASRRKPVQVEAAKDTTIQEILQKVIDAFVEDKEENIPSIESMKVVFDNERIKDVNITCEQLDLEDDDCIEVYF”, the “soluble on expression in E. coli” value was “not soluble”.
In the case of “MSDSDIPSSTLYKDNVDWKDITPIYPSKEEEVAVKIAVTEDFTDAFAYFRAILIKNEKSDRVMALLEDCIRLNPANYTVWQYRRVCLTELGWDLKKEMRYLSDIIQESPKNYQVWHHRRFIVETIGESAVNDELHFCSEVIRDENKNYHAWQHRQWVVRTFKVPLEKELTFALHMLLLDNRNNSAYNYRYFLMTLYDKTEDASQLDIEINLAKKFIENIPNNESAWNYLAGLLITNGVTSNSDVVSFVEDLYETTPEEKRSPFLLAFIADMMLENIENQKSAEESAGRAKKLYKDLQSIDPVRVNYYRHQSLLAQTMLIKAQTKVTAK”, the “soluble on expression in E. coli” value is reported as “not soluble”.
In the case of “MSDTADSLSARGIPKSELIEDVESWLTKEKLSIEEAEVVLREKYGKYKYVESSMLAQKVRMSEKIPEFENSLSIIDTLIAKRAADESFETTFLLSDDVYTKATVQKPEKVSIWLGANVMVEYDLENARKLLDKNRGSVQKVVDELTNELSYIKDQITTTEVNMSHIVNFGVNKRRAALAVNNGAK”, the “soluble on expression in E. coli” value is reported as “not soluble”.
With “MSDTPATRDFGLIDGRAVTGYVLSNRRGTRVCVLDLGGIVQEFSVLADGVRENLVVSFDDAASYADNPFQINKQIGRVAGRIRGAAFDINGRTYRVEANEGRNALHGGSHGLAVTRFNAVAADGRSVVLRSRLQQSADGYPNDLDLDISYRLDEDDRLTVSYRATALGDTVFDPTLHIYWRLDAGLHDAVLHIPQGGHMPADAEKLPVSTVSDDLEVFDFSRPKPLDAAVAALRRETGRAGFDDAYRVPSDIGRPAAVLQAGRRRRISIYSDRNGLVIFTAAPQDFARHDAGVYDALATEAQTLPDSLNWPEFGNIRLNKGDTREATIAYGIESLS” the “soluble on expression in E. coli” value was “not soluble”.
In the case of “MSDVTGDLAAVSEAKGGSDAARISEVKAWLTSQFEAVGKEVPNFEYTHRSITHLYNLATASQAKSQAATIVANDFRLKASEYRAQAARIREILESAGMSQESLPSNVVSSAQVLANVANLLNIRDTELSRILAQLEDDVVPCESQMENWKTNLEVMAVKEEQYIQQYKKYEMLLNRVGYTPKISHRELVEMAEHRKELDKMTKPVLDTLRSYQDLPPDKALAALAIEDKKRQFTAAEKYLEEVLQSALETNDE”, the “soluble on expression in E. coli” value is reported as “soluble”.
With “MSEDELIIIENLKKIYKIKNVEFPALRGINLKIYKGEFLGIAGPSGSGKTTLLDMIGLLDSPTEGKIIIDKKDVTKFDEDKRAIFRRKNIGFVFQSYNLISYLTVLENVELALAAAGYPVSKRKAKAEEILSMIPGMLELKNKKPNELSAGQQQRVAIARALANDPKILIADEPTANLDSKTGEAIVELLRKLNEEKGVTIVMATHDPMMMKYVDRLVYIRDGLIEKEVIQK” the “soluble on expression in E. coli” value was “soluble”.
